# Experimental data taken from patent US9175313B2, “Three-dimensional structure of isoprene synthase and its use thereof for generating variants” (Danisco US Inc., priority 2009, dated 2015).
# Experiment: Specific activity measurement of purified isoprene synthase variants (4 mM DMAPP, 30 C, GC-MS headspace)
# Format: biochemical
# Details: 50 mM NaCl, 50 mM Tris pH = 8, 30° C.; for Variant S.A./WT S.A.: ratio to WT
# Protocol: 1. Initial Purification—Resuspend the pellet in 3 ml of fresh lysis buffer. Break cells by passing them through the French Press using the small cylinder. Centrifuge samples for 1 hour at 30,000×G and collect the supernatant. Retain pellet in order to test for presence of insoluble protein. Pre equilibrate 0.5 mL Ni Sepharose 6 Fast Flow resin (Amersham) in a 20 ml disposable column with 10 mL of Ni wash buffer. Add protein to column and shake for 60 min at 4 C to bind protein. Elute protein with 2.5 mL Ni elution buffer.
# 2. Buffer Exchange—Equilibrate a PD-10 column (GE Healthcare) with 25 mL of PD-10 buffer. Load protein on to column and elute with 3.5 mL of PD-10 buffer.
# 10 uL of purified enzyme was incubated with 4 mM DMAPP, 50 mM MgCl2 in a buffer containing 50 mM Tris and 50 mM NaCl (pH=8) to a final volume of 100 uL for 15 min. at 30 C in gas tight 2 mL vials. Reactions were terminated with the addition of 100 uL of […] EDTA, pH=8. Samples were analyzed by GC-MS to determine the concentration of isoprene in the headspace of the vials. All specific activity measurements were performed in triplicate.
# Protein concentration was determined by measuring the absorbance of each protein solution at 280 nm on a Helwlett Pachard 8453 UV-Vis spectrophotometer and converting the absorbance to protein concentration using the extinction coefficient as determined on the Expasy website (Gasteiger E., Hoogland C., Gattiker A., Duvaud S., Wilkins M. R., Appel R. D., Bairoch A.; Protein Identification and Analysis Tools on the ExPASy Server; (In) John M. Walker (ed): The Proteomics Protocols Handbook, Humana Press (2005). pp. 571-607). The protein concentrations of isoprene synthase variants assayed for KM and kcat determination were verified by comparative gel electrophoresis of a dilution series of each protein (FIG. 61).
Molecule,S.A. [nmol/mg/min],Variant S.A./WT S.A.
"PC: P. alba MEA L494P T536C (+) TEV; pDW113, SEQ ID NO: 93 (protein, TEV site) MEARRSANYEPNSWDYDYLLSSDTDESIEVYKDKAKKLEAEVRREINNEKAEFLTLLELIDNVQRLGLGYRFESDIRGALDRFVSSGGFDAVTKTSLHGTALSFRLLRQHGFEVSQEAFSGFKDQNGNFLENLKEDIKAILSLYEASFLALEGENILDEAKVFAISHLKELSEEKIGKELAEQVNHALELPLHRRTQRLEAVWSIEAYRKKEDANQVLLELAILDYNMIQSVYQRDLRETSRWWRRVGLATKLHFARDRLIESFYWAVGVAFEPQYSDCRNSVAKMFSFVTIIDDIYDVYGTLDELELFTDAVERWDVNAINDLPDYMKLCFLALYNTINEIAYDNLKDKGENILPYLTKAWADLCNAFLQEAKWLYNKSTPTFDDYFGNAWKSSSGPLQLVFAYFAVVQNIKKEEIENLQKYHDTISRPSHIFRLCNDLASASAEIARGETANSVSCYMRTKGISEELATESVMNLIDETWKKMNKEKLGGSPFAKPFVETAINLARQSHCTYHNGDAHTSPDELTRKRVLSVICEPILPFERENLYFQGLEHHHHHH",490 ± 20,1.0
"G491S: P. alba IspS variant G491S; pDW100, strain DW398, SEQ ID NO: 67 (protein) MEARRSANYEPNSWDYDYLLSSDTDESIEVYKDKAKKLEAEVRREINNEKAEFLTLLELIDNVQRLGLGYRFESDIRGALDRFVSSGGFDAVTKTSLHGTALSFRLLRQHGFEVSQEAFSGFKDQNGNFLENLKEDIKAILSLYEASFLALEGENILDEAKVFAISHLKELSEEKIGKELAEQVNHALELPLHRRTQRLEAVWSIEAYRKKEDANQVLLELAILDYNMIQSVYQRDLRETSRWWRRVGLATKLHFARDRLIESFYWAVGVAFEPQYSDCRNSVAKMFSFVTIIDDIYDVYGTLDELELFTDAVERWDVNAINDLPDYMKLCFLALYNTINEIAYDNLKDKGENILPYLTKAWADLCNAFLQEAKWLYNKSTPTFDDYFGNAWKSSSGPLQLVFAYFAVVQNIKKEEIENLQKYHDTISRPSHIFRLCNDLASASAEIARGETANSVSCYMRTKGISEELATESVMNLIDETWKKMNKEKLSGSLFAKPFVETAINLARQSHCTYHNGDAHTSPDELTRKRVLSVITEPILPFERENLYFQGLEHHHHHH",480 ± 20,1.0
"NC: P. alba MEA A453N T536C (+) TEV; pDW105, SEQ ID NO: 77 (protein, TEV site) MEARRSANYEPNSWDYDYLLSSDTDESIEVYKDKAKKLEAEVRREINNEKAEFLTLLELIDNVQRLGLGYRFESDIRGALDRFVSSGGFDAVTKTSLHGTALSFRLLRQHGFEVSQEAFSGFKDQNGNFLENLKEDIKAILSLYEASFLALEGENILDEAKVFAISHLKELSEEKIGKELAEQVNHALELPLHRRTQRLEAVWSIEAYRKKEDANQVLLELAILDYNMIQSVYQRDLRETSRWWRRVGLATKLHFARDRLIESFYWAVGVAFEPQYSDCRNSVAKMFSFVTIIDDIYDVYGTLDELELFTDAVERWDVNAINDLPDYMKLCFLALYNTINEIAYDNLKDKGENILPYLTKAWADLCNAFLQEAKWLYNKSTPTFDDYFGNAWKSSSGPLQLVFAYFAVVQNIKKEEIENLQKYHDTISRPSHIFRLCNDLASASAEIARGETNNSVSCYMRTKGISEELATESVMNLIDETWKKMNKEKLGGSLFAKPFVETAINLARQSHCTYHNGDAHTSPDELTRKRVLSVICEPILPFERENLYFQGLEHHHHHH",420 ± 30,0.9
"NPC: P. alba MEA A453N L494P T536C (+) TEV; pDW108, SEQ ID NO: 83 (protein, TEV site) MEARRSANYEPNSWDYDYLLSSDTDESIEVYKDKAKKLEAEVRREINNEKAEFLTLLELIDNVQRLGLGYRFESDIRGALDRFVSSGGFDAVTKTSLHGTALSFRLLRQHGFEVSQEAFSGFKDQNGNFLENLKEDIKAILSLYEASFLALEGENILDEAKVFAISHLKELSEEKIGKELAEQVNHALELPLHRRTQRLEAVWSIEAYRKKEDANQVLLELAILDYNMIQSVYQRDLRETSRWWRRVGLATKLHFARDRLIESFYWAVGVAFEPQYSDCRNSVAKMFSFVTIIDDIYDVYGTLDELELFTDAVERWDVNAINDLPDYMKLCFLALYNTINEIAYDNLKDKGENILPYLTKAWADLCNAFLQEAKWLYNKSTPTFDDYFGNAWKSSSGPLQLVFAYFAVVQNIKKEEIENLQKYHDTISRPSHIFRLCNDLASASAEIARGETNNSVSCYMRTKGISEELATESVMNLIDETWKKMNKEKLGGSPFAKPFVETAINLARQSHCTYHNGDAHTSPDELTRKRVLSVICEPILPFERENLYFQGLEHHHHHH",440 ± 20,0.9
"NP: P. alba MEA A453N L494P (+) TEV; pDW104, SEQ ID NO: 75 (protein, TEV site) MEARRSANYEPNSWDYDYLLSSDTDESIEVYKDKAKKLEAEVRREINNEKAEFLTLLELIDNVQRLGLGYRFESDIRGALDRFVSSGGFDAVTKTSLHGTALSFRLLRQHGFEVSQEAFSGFKDQNGNFLENLKEDIKAILSLYEASFLALEGENILDEAKVFAISHLKELSEEKIGKELAEQVNHALELPLHRRTQRLEAVWSIEAYRKKEDANQVLLELAILDYNMIQSVYQRDLRETSRWWRRVGLATKLHFARDRLIESFYWAVGVAFEPQYSDCRNSVAKMFSFVTIIDDIYDVYGTLDELELFTDAVERWDVNAINDLPDYMKLCFLALYNTINEIAYDNLKDKGENILPYLTKAWADLCNAFLQEAKWLYNKSTPTFDDYFGNAWKSSSGPLQLVFAYFAVVQNIKKEEIENLQKYHDTISRPSHIFRLCNDLASASAEIARGETNNSVSCYMRTKGISEELATESVMNLIDETWKKMNKEKLGGSPFAKPFVETAINLARQSHCTYHNGDAHTSPDELTRKRVLSVITEPILPFERENLYFQGLEHHHHHH",490 ± 20,1.0
"NSP: P. alba MEA A453N G491S L494P (+) TEV; pDW106, SEQ ID NO: 79 (protein, TEV site) MEARRSANYEPNSWDYDYLLSSDTDESIEVYKDKAKKLEAEVRREINNEKAEFLTLLELIDNVQRLGLGYRFESDIRGALDRFVSSGGFDAVTKTSLHGTALSFRLLRQHGFEVSQEAFSGFKDQNGNFLENLKEDIKAILSLYEASFLALEGENILDEAKVFAISHLKELSEEKIGKELAEQVNHALELPLHRRTQRLEAVWSIEAYRKKEDANQVLLELAILDYNMIQSVYQRDLRETSRWWRRVGLATKLHFARDRLIESFYWAVGVAFEPQYSDCRNSVAKMFSFVTIIDDIYDVYGTLDELELFTDAVERWDVNAINDLPDYMKLCFLALYNTINEIAYDNLKDKGENILPYLTKAWADLCNAFLQEAKWLYNKSTPTFDDYFGNAWKSSSGPLQLVFAYFAVVQNIKKEEIENLQKYHDTISRPSHIFRLCNDLASASAEIARGETNNSVSCYMRTKGISEELATESVMNLIDETWKKMNKEKLSGSPFAKPFVETAINLARQSHCTYHNGDAHTSPDELTRKRVLSVITEPILPFERENLYFQGLEHHHHHH",465 ± 2,1.0
"NS: P. alba MEA A453N G491S (+) TEV; pDW103, SEQ ID NO: 73 (protein, TEV site) MEARRSANYEPNSWDYDYLLSSDTDESIEVYKDKAKKLEAEVRREINNEKAEFLTLLELIDNVQRLGLGYRFESDIRGALDRFVSSGGFDAVTKTSLHGTALSFRLLRQHGFEVSQEAFSGFKDQNGNFLENLKEDIKAILSLYEASFLALEGENILDEAKVFAISHLKELSEEKIGKELAEQVNHALELPLHRRTQRLEAVWSIEAYRKKEDANQVLLELAILDYNMIQSVYQRDLRETSRWWRRVGLATKLHFARDRLIESFYWAVGVAFEPQYSDCRNSVAKMFSFVTIIDDIYDVYGTLDELELFTDAVERWDVNAINDLPDYMKLCFLALYNTINEIAYDNLKDKGENILPYLTKAWADLCNAFLQEAKWLYNKSTPTFDDYFGNAWKSSSGPLQLVFAYFAVVQNIKKEEIENLQKYHDTISRPSHIFRLCNDLASASAEIARGETNNSVSCYMRTKGISEELATESVMNLIDETWKKMNKEKLSGSLFAKPFVETAINLARQSHCTYHNGDAHTSPDELTRKRVLSVITEPILPFERENLYFQGLEHHHHHH",480 ± 40,1.0
"SC: P. alba MEA G491S T536C (+) TEV; pDW111, SEQ ID NO: 89 (protein, TEV site) MEARRSANYEPNSWDYDYLLSSDTDESIEVYKDKAKKLEAEVRREINNEKAEFLTLLELIDNVQRLGLGYRFESDIRGALDRFVSSGGFDAVTKTSLHGTALSFRLLRQHGFEVSQEAFSGFKDQNGNFLENLKEDIKAILSLYEASFLALEGENILDEAKVFAISHLKELSEEKIGKELAEQVNHALELPLHRRTQRLEAVWSIEAYRKKEDANQVLLELAILDYNMIQSVYQRDLRETSRWWRRVGLATKLHFARDRLIESFYWAVGVAFEPQYSDCRNSVAKMFSFVTIIDDIYDVYGTLDELELFTDAVERWDVNAINDLPDYMKLCFLALYNTINEIAYDNLKDKGENILPYLTKAWADLCNAFLQEAKWLYNKSTPTFDDYFGNAWKSSSGPLQLVFAYFAVVQNIKKEEIENLQKYHDTISRPSHIFRLCNDLASASAEIARGETANSVSCYMRTKGISEELATESVMNLIDETWKKMNKEKLSGSLFAKPFVETAINLARQSHCTYHNGDAHTSPDELTRKRVLSVICEPILPFERENLYFQGLEHHHHHH",440 ± 20,0.9
